# Measured values reported in PMC11996674, “Mechanism of mammalian transcriptional repression by noncoding RNA”.
# B1: minimal Alu-RA (structured_RNA)
# RNA: GAGGCAGGAGAAUGGCGUGAACCCGGGAGGUGGACGAGAUCGCUCCAGCCUGGGUGACAGAGCGAGACUCUGUCUC
# Molecular target: RNA polymerase II (12-subunit) (Sus scrofa (thymus), UniProt A0A8D1DPV6;A0A0B8RVL1;P19387;O15514;P19388;P61218;P62487;P52434;P60899;P62875;A0 …)
# Assay: cryo-EM; alternative conformation, EMD-18376; FA: 5 mM HEPES-NaOH pH 7.25, 150 mM NaCl, 10 uM ZnCl2, 1 mM MgCl2, 1 mM DTT, 4 nM RNA, 30 C; EMSA: 20 mM HEPES-NaOH pH 7.25, 150 mM NaCl, 1 mM MgCl2, 5% glycerol, 40 ug/ml BSA, 1 mM DTT, 5 nM RNA, 30 C (gel 4 C)
# Settings: protein: native; copies: 1;1;1;1;1;1;1;1;1;1;1;1; folded; canonical and alternative conformations
binder,measurement,value
B1,binding result,binds
